Test results as given in patent US20190381086A1, “INHIBITION OF NEDDYLATION USING GLYCYL-tRNA SYNTHETASE INHIBITORS” (The Scripps Research Institute, priority 2015, published 2019).

Columns and labels:
[1] = molecular target: Ubc12^N8: NEDD8-conjugated Ubc12 (C111S, stable ester linkage to His-SUMO-tagged NEDD8) (UniProt P61081); experiment: biolayer interferometry, Ubc12^N8 immobilized
[2] = molecular target: Ubc12^N8: NEDD8-conjugated Ubc12 (C111S, stable ester linkage to His-SUMO-tagged NEDD8) (UniProt P61081); experiment: biolayer interferometry (Octet), 30 °C, Ubc12^N8 (100 nM) immobilized on sensor tips, GlyRS 0.25 µM; curve 'Blank' (no GlySA)
[3] = molecular target: Ubc12^N8: NEDD8-conjugated Ubc12 (C111S, stable ester linkage to His-SUMO-tagged NEDD8) (UniProt P61081); experiment: biolayer interferometry (Octet), 30 °C, Ubc12^N8 (100 nM) immobilized on sensor tips, GlyRS 0.25 µM; in the presence of 0.5 mM of the small molecule GlySA
[4] = molecular target: Ubc12^N8: NEDD8-conjugated Ubc12 (C111S, stable ester linkage to His-SUMO-tagged NEDD8) (UniProt P61081); experiment: biolayer interferometry (Octet), 30 °C, Ubc12^N8 (100 nM) immobilized on sensor tips, GlyRS 0.25 µM; in the presence of 1.0 mM of the small molecule GlySA
[5] = molecular target: Ubc12^N8: NEDD8-conjugated Ubc12 (C111S, stable ester linkage to His-SUMO-tagged NEDD8) (UniProt P61081); experiment: biolayer interferometry, Ubc12^N8 immobilized, full-length GlyRS 8.07-129 nM

| Kd [1] [nM] | fold decrease of binding against wild type GlyRS [1] [fold] | Kd [2] [nM] | Kd [3] [nM] | Kd [4] [nM] | Kd [5] [nM] | Binder |
| --- | --- | --- | --- | --- | --- | --- |
| 4.32 |  |  |  |  |  | ΔInsertion 1 GlyRS (F147-F224 replaced by GSGSGG) (enzyme) MDGAGAEEVLAPLRLAVRQQGDLVRKLKEDKAPQVDVDKAVAELKARKRVLEAKELALQPKDDIVDRAKMEDTLKRRFFYDQAFAIYGGVSGLYDFGPVGCALKNNIIQTWRQHFIQEEQILEIDCTMLTPEPVLKTSGHVDKFADGSGSGGNLMFKTFIGPGGNMPGYLRPETAQGIFLNFKRLLEFNQGKLPFAAAQIGNSFRNEISPRSGLIRVREFTMAEIEHFVDPSEKDHPKFQNVADLHLYLYSAKAQVSGQSARKMRLGDAVEQGVINNTVLGYFIGRIYLYLTKVGISPDKLRFRQHMENEMAHYACDCWDAESKTSYGWIEIVGCADRSCYDLSCHARATKVPLVAEKPLKEPKTVNVVQFEPSKGAIGKAYKKDAKLVMEYLAICDECYITEMEMLLNEKGEFTIETEGKTFQLTKDMINVKRFQKTLYVEEVVPNVIEPSFGLGRIMYTVFEHTFHVREGDEQRTFFSFPAVVAPFKCSVLPLSQNQEFMPFVKELSEALTRHGVSHKVDDSSGSIGRRYARTDEIGVAFGVTIDFDTVNKTPHTATLRDRDSMRQIRAEISELPSIVQDLANGNITWADVEARYPLFEGQETGKKETIEE |
| 27 | 9 |  |  |  |  | ΔF84-L93 GlyRS (F84-L93 replaced by GGG) (enzyme) MDGAGAEEVLAPLRLAVRQQGDLVRKLKEDKAPQVDVDKAVAELKARKRVLEAKELALQPKDDIVDRAKMEDTLKRRFFYDQAGGGYDFGPVGCALKNNIIQTWRQHFIQEEQILEIDCTMLTPEPVLKTSGHVDKFADFMVKDVKNGECFRADHLLKAHLQKLMSDKKCSVEKKSEMESVLAQLDNYGQQELADLFVNYNVKSPITGNDLSPPVSFNLMFKTFIGPGGNMPGYLRPETAQGIFLNFKRLLEFNQGKLPFAAAQIGNSFRNEISPRSGLIRVREFTMAEIEHFVDPSEKDHPKFQNVADLHLYLYSAKAQVSGQSARKMRLGDAVEQGVINNTVLGYFIGRIYLYLTKVGISPDKLRFRQHMENEMAHYACDCWDAESKTSYGWIEIVGCADRSCYDLSCHARATKVPLVAEKPLKEPKTVNVVQFEPSKGAIGKAYKKDAKLVMEYLAICDECYITEMEMLLNEKGEFTIETEGKTFQLTKDMINVKRFQKTLYVEEVVPNVIEPSFGLGRIMYTVFEHTFHVREGDEQRTFFSFPAVVAPFKCSVLPLSQNQEFMPFVKELSEALTRHGVSHKVDDSSGSIGRRYARTDEIGVAFGVTIDFDTVNKTPHTATLRDRDSMRQIRAEISELPSIVQDLANGNITWADVEARYPLFEGQETGKKETIEE |
|  |  | 2.12 | 7.88 | 22.4 | 3.21 | full-length human GlyRS (enzyme) MDGAGAEEVLAPLRLAVRQQGDLVRKLKEDKAPQVDVDKAVAELKARKRVLEAKELALQPKDDIVDRAKMEDTLKRRFFYDQAFAIYGGVSGLYDFGPVGCALKNNIIQTWRQHFIQEEQILEIDCTMLTPEPVLKTSGHVDKFADFMVKDVKNGECFRADHLLKAHLQKLMSDKKCSVEKKSEMESVLAQLDNYGQQELADLFVNYNVKSPITGNDLSPPVSFNLMFKTFIGPGGNMPGYLRPETAQGIFLNFKRLLEFNQGKLPFAAAQIGNSFRNEISPRSGLIRVREFTMAEIEHFVDPSEKDHPKFQNVADLHLYLYSAKAQVSGQSARKMRLGDAVEQGVINNTVLGYFIGRIYLYLTKVGISPDKLRFRQHMENEMAHYACDCWDAESKTSYGWIEIVGCADRSCYDLSCHARATKVPLVAEKPLKEPKTVNVVQFEPSKGAIGKAYKKDAKLVMEYLAICDECYITEMEMLLNEKGEFTIETEGKTFQLTKDMINVKRFQKTLYVEEVVPNVIEPSFGLGRIMYTVFEHTFHVREGDEQRTFFSFPAVVAPFKCSVLPLSQNQEFMPFVKELSEALTRHGVSHKVDDSSGSIGRRYARTDEIGVAFGVTIDFDTVNKTPHTATLRDRDSMRQIRAEISELPSIVQDLANGNITWADVEARYPLFEGQETGKKETIEE |
